Where “and” joins values, the source holds several entries; their conditions need not be identical. Equal values may be shown once. Entries after “also recorded” stand apart in the source; their conditions may differ. Starred links: 1 amine or outer side, 2 acyl side, 3 side chain; linkers in the order of their positions; H or OH if unused. Non-standard residues stand in square brackets, D forms with d. Residues, ends and D or L forms follow the SMILES beside them. ξ: configuration not given here. *: point of attachment. GluureaLys(ε-3-ClBenzyl) = O=C(O)CC[C@H](NC(=O)N[C@@H](CCCCN(Cc1cccc(Cl)c1)*)C(=O)O)C(=O)O; Dolaproine = CO[C@@H]([C@@H]1CCCN1)[C@@H](C)C(=O)O; Dil = CC[C@H](C)[C@H](NC)[C@@H](CC(=O)O)OC; X1 = O=C(CCCc1cn(CCCN[*:1])nn1)[*:2]; PABC = O=C(OCc1ccc(N[*:1])cc1)[*:2]; X2 = C[C@@H](N*)[C@@H](O)c1ccccc1; Cit = NC(=O)NCCC[C@H](N)C(=O)O; Suc = O=C(CCC(=O)[*:2])[*:1]; NMeV = CN[C@H](C(=O)O)C(C)C; ξV = CC(C)C(N)C(=O)O; Ahx = NCCCCCC(=O)O
Experiments:
[1] = Assessment of the tolerability in the 22Rv1 xenograft study (body weight, survival, general health); type: in vivo, mice; settings: 0.3 mg/kg; for Body weight of mice (M ± m): in g (unit assumed)
[2] = test system: 22Rv1 prostate cancer s.c. xenografts; experiment: Antineoplastic efficacy on 22Rv1 prostate cancer xenograft model (tumor growth inhibition); type: in vivo, mice; settings: for Tumor volume, V mean / TGI %: 22Rv1; for Tumor volume, V mean / TGI % / Tumor volume (individual tumors): 0.3 mg/kg i.p. x3; for TGI %: vs TGC; for Tumor volume (individual tumors): 22Rv1 s.c. xenograft, 0.3 mg/kg
Description: The evaluation of antineoplastic Conjugate (I) efficacy on xenograft model of prostate cancer.
To study the drug efficacy the xenograft model was selected as a quite illustrative one for preclinical studies (Application of Prostate Cancer Models for Preclinical Study: Advantages and Limitations of Cell Lines, Patient-Derived Xenografts, and Three-Dimensional Culture of Patient-Derived Cells Takeshi Namekawa, Kazuhiro Kuniko Horie-Inoue, Satoshi Inoue Cells, 2019 January; 8(1), The criteria of antineoplastic activity were tumor growth inhibition (TGI) (Experimental assessment of antineoplastic agents in the USSR and USA/IEd. Ed. Sophyina Z. P., Syrkin A. B., Goldin F., Klein I.//J.: Medicine, 1980) in treated animals (Pon) compared with control (Pk), expressed as a percentage: […]
The treatment in all groups was started when tumor nodes were appeared.
Tumor growth was times at the end of study (Table 1).

[3] = Acute toxicity study, single intravenous administration, rats; type: in vivo; settings: for Necropsy (per animal): day 14; for Necropsy (per animal) / Necropsy / Signs of intoxication / Body weight dynamics in % of initial body weight, Day 5 (individual animals) / Body weight dynamics in % of initial body weight, Day 10 (individual animals) / Body weight dynamics in % of initial body weight, Day 14 (individual animals): listed as test drug; for Body weight dynamics in % of initial body weight, Day 5, M ± SD / Body weight dynamics in % of initial body weight, Day 5 (individual animals) / Body weight dynamics in % of initial body weight, Day 10, M ± SD / Body weight dynamics in % of initial body weight, Day 10 (individual animals) / Body weight dynamics in % of initial body weight, Day 14, M ± SD / Body weight dynamics in % of initial body weight, Day 14 (individual animals): single administration; for Body weight dynamics in % of initial body weight, Day 5, M ± SD: Day 5, group mean; for Body weight dynamics in % of initial body weight, Day 10, M ± SD: Day 10, group mean; for Body weight dynamics in % of initial body weight, Day 14, M ± SD: Day 14, group mean
Description: Acute toxicity study of Conjugate (I) product on mice and rats.
• 1. Conjugate (I). • 2. Solubilizer Pluronic F127—in the amount, five-fold greater than the conjugate amount by weight. • 3. Diluent Haemodes infusion solution. • 4. Dimethyl sulfoxide—in the amount of 5% of the prepared volume.
The experiment took white outbred male mice aged about 2 months with body weight of 19-21,g, and also white outbred mature male rats aged about 2 months with body weight 190-210 g.
Acute toxicity study was performed within the intravenous administration. Before the start of the experiment to determine an acute toxicity, the animals were deprived of food and water (mice were deprived for 2 hours, rats—for 10-12 hours), and then weighed. Then each animal received the intravenous drug injection according to the study design, in a volume not exceeding the acceptable single injection volume: 0.5 mL for mice, 2 mL for rats, and fractionally if necessary. The control group of animals received Pluronic solution in Haemodes in the proportion used fort dose preparation of 78 mg/kg for mice and 38 mg/kg for rats. The duration of observation for laboratory animals was 14 days. During this period, visible signs of intoxication were assessed (see Table 9).

[4] = 3 mg/kg, group 11, males, 3 mg/kg
[5] = 4 mg/kg, group 12, males, 4 mg/kg

## CC[C@H](C)[C@@H]([C@@H](CC(=O)N1CCC[C@H]1[C@H](OC)[C@@H](C)C(=O)N[C@H](C)[C@@H](O)c1ccccc1)OC)N(C)C(=O)[C@@H](NC(=O)[C@H](C(C)C)N(C)C(=O)OCc1ccc(NC(=O)[C@H](CCCNC(N)=O)NC(=O)C(NC(=O)CCCc2cn(CCCNC(=O)[C@H](Cc3ccc(O)cc3)NC(=O)[C@H](Cc3ccccc3)NC(=O)CCC(=O)NCCCCCC(=O)N(CCCC[C@H](NC(=O)N[C@@H](CCC(=O)O)C(=O)O)C(=O)O)Cc3cccc(Cl)c3)nn2)C(C)C)cc1)C(C)C (stereo partly drawn) [Conjugate (I)] ({GluureaLys(ε-3-ClBenzyl)-Ahx-Suc}-FY[X1][ξV][Cit][PABC][NMeV]V[Dil][Dolaproine]-X2)
[1]; day 6
  Body weight of mice (M ± m): 19.2 ± 0.35
[1]; day 8
  Body weight of mice (M ± m): 19.4 ± 0.4
[1]; mice
  Death cases: no death cases
[1]; mice, whole experiment
  Survival: 100%
[1]; within and after intake
  General health and mice behavior: satisfactory without any pathologic changes and gastrointestinal and any other toxicity
[2]; day 1
  Tumor volume, V mean: 28 mm^3
[2]; day 1 after treatment completion
  TGI %: 83%
[2]; day 4
  Tumor volume, V mean: 83 mm^3
  TGI %: 85%
[2]; day 8
  Tumor volume, V mean: 341 mm^3
  TGI %: 70%
[2]; day 1 after treatment
  Tumor volume (individual tumors): 22 mm^3 and 17 mm^3 (2×) and 45 mm^3 and 14 mm^3 and 19 mm^3 and 30 mm^3 (2×) and 32 mm^3 and 31 mm^3 and 51 mm^3 and 34 mm^3 and 18 mm^3 and 40 mm^3
[2]; day 4 after treatment
  Tumor volume (individual tumors): 72 mm^3 (2×) and 42 mm^3 and 75 mm^3 and 38 mm^3 and 78 mm^3 and 173 mm^3 and 63 mm^3 and 108 mm^3 and 115 mm^3 and 65 mm^3 and 74 mm^3 and 102 mm^3 and 81 mm^3
[2]; day 8 after treatment
  Tumor volume (individual tumors): 346 mm^3 and 111 mm^3 and 369 mm^3 and 186 mm^3 and 463 mm^3 and 597 mm^3 and 570 mm^3 and 314 mm^3 and 853 mm^3 and 177 mm^3 and 247 mm^3 and 349 mm^3 and 94 mm^3 and 96 mm^3
[2]; mouse, in vivo
  Dose achieving effective tumor growth inhibition (TGI): approximately 0.3 mg/kg
[3]; male rats, all test doses
  Body weight effect (summary): decreased growth rate or decreased body weight regarding the initial One
[3]; male rats, i.v. 4 mg/kg
  Fatality: 0
[3]; male rats, i.v. 4.5 mg/kg
  Fatality: 3
[3]; male rats, i.v. 5 mg/kg
  Fatality: 5
[3]; male rats, i.v. 5.1 mg/kg
  Fatality: 4
[3]; male rats, i.v. 5.4 mg/kg
  Fatality: 10
[3]; male, white outbred, rat, in vivo, iv, rats, single i.v., read-out: Maximum tolerated dose
  MTD at 14 days: 4 mg/kg
[3]; rats, 1 mg/kg i.v., 1 mg/kg
  Necropsy (per animal): 1- NORMAL and 2- NORMAL and 3- light kidneys and 4- NORMAL and 5- NORMAL and 6- light kidneys, blurred pattern lines and 7- adrenals glands had hemorrhages, kidneys are and 8- light kidneys and 9- large spleen, granular kidneys and 10- kidneys with hemorrhages
[3]; rats, 2 mg/kg i.v., 2 mg/kg
  Necropsy (per animal): 1- very light kidneys, unclear pattern, large spleen and 2- light-brown kidneys, dark adrenal glands with and 3- light-brown kidneys with hemorrhages, kidney cut and 4- light-brown kidneys with hemorrhages, kidney cut and 5- kidneys are lighter than a standard and 6- kidneys are almost standard, dark and increased and 7- spotted liver, light kidneys, their structure is visible and 8- liver is lighter than a standard, light kidneys and 9- dark maroon pancreas, increased and bloody adrenal and 10- dark maroon pancreas, kidneys with hemorrhages,
[3]; rats, 3 mg/kg i.v., 3 mg/kg
  Necropsy (per animal): 1- light kidneys with hemorrhages and 2- light kidneys with hemorrhages, blurred pattern and 3- light kidneys with hemorrhages and 5- standard kidneys and 6- kidneys with hemorrhages, clear cut pattern and 7- light, spotted, unevenly stained kidneys and 8- light kidneys and 9- light kidneys, increased adrenal glands, kidneys with and 10- kidneys with hemorrhages, dark and increased
[3]; rats, 4 mg/kg i.v., 4 mg/kg
  Necropsy (per animal): 1- kidneys with hemorrhages, unclear pattern and 2- spotted kidneys with hemorrhages, clear pattern and 3- increased right adrenal gland, standard kidneys and 4- slightly increased adrenal glands, with hemorrhages, and 5- spotted kidneys with hemorrhages, clear pattern and 6- standard kidney color, blurred cut pattern, unclear and 7- kidney surface hemorrhages, visible pattern and 8- light kidneys with hemorrhage foci, unclear pattern of and 9- slightly increased, hyperemic adrenal glands, kidney and 10- standard kidneys
[3]; rats, 4.5 mg/kg i.v., dead No. 4 and survivors day 14, 4.5 mg/kg
  Necropsy: increased and hyperemic kidneys; spotted, dark kidneys;; also recorded: Only rat No. 5 had Sight kidneys; also recorded: Others had standard ones
[3]; rats, 5 mg/kg i.v., dead animals and survivors day 14, 5 mg/kg
  Necropsy: 2 - light brown kidneys with greenish shade, blurry cut and All rats had a large spleen
[3]; rats, 5.1 mg/kg i.v., survivors day 14, 5.1 mg/kg
  Necropsy: One animal had increased adrenal glands, very light; also recorded: Others had standard ones
[3]; rats, acute i.v.
  Toxic effect (summary): diarrhea and the renal damage
[3]; rats, single i.v. 1 mg/kg, 1 mg/kg
  Signs of intoxication: No diarrhea was observed on Day 5.
[3]; rats, single i.v. 3 mg/kg, 3 mg/kg
  Signs of intoxication: All animals experienced diarrhea on Day
[3]; rats, single i.v. 4.5 mg/kg, 4.5 mg/kg
  Signs of intoxication: Decreased mot. activity - 5-40 minutes; also recorded: Shortness of breath - 1-60 minutes; also recorded: diarrhea, cachexia, porphyria, decreased
[3]; rats, single i.v. 5 mg/kg, 5 mg/kg
  Signs of intoxication: All animals developed diarrhea/cachexia
[3]; rats, single i.v. 5.1 mg/kg, 5.1 mg/kg
  Signs of intoxication: Decreased mot. activity - 5-40 minutes; also recorded: Shortness of breath - 1-60 minutes; also recorded: Days 1-2 - all animals had diarrhea,; also recorded: Death cases occurred in 2 days (2), 4
[3]; rats, single i.v. 5.4 mg/kg, 5.4 mg/kg
  Signs of intoxication: Decreased mot. activity - 5-40 minutes; also recorded: Shortness of breath - 1-60 minutes; also recorded: Days 1-2 - all animals had diarrhea,; also recorded: No standard achieved; also recorded: Two animals had the hindlimb paresis
[3]; rats, single i.v. 6 mg/kg, 6 mg/kg
  Signs of intoxication: on Day 2 - all animals showed diarrhea
[3]; rats, single i.v. 8 mg/kg, 8 mg/kg
  Signs of intoxication: diarrhea, general starvation, adynamia
[3]; 3 mg/kg, group 11, males
  Body weight dynamics in % of initial body weight, Day 5, M ± SD: −0.2 ± 7.1%
  Body weight dynamics in % of initial body weight, Day 10, M ± SD: 17.2 ± 6.1%
  Body weight dynamics in % of initial body weight, Day 14, M ± SD: 22.8 ± 6.0%
[3]; [4]
  Body weight dynamics in % of initial body weight, Day 5 (individual animals): −1.5% and −11.2% and −5.1% and 10.8% and −9.4% and 5.5% and 1.4% and −2.4% and 2.0% and 7.6%
  Body weight dynamics in % of initial body weight, Day 10 (individual animals): 17.3% and 5.9% and 16.4% and 25.1% and 11.4% and 20.1% and 19.7% and 17.1% and 13.2% and 26.1%
  Body weight dynamics in % of initial body weight, Day 14 (individual animals): 20.8% and 10.1% and 20.0% and 29.1% and 16.8% and 27.1% and 26.4% and 23.8% and 24.9% and 29.4%
[3]; 4 mg/kg, group 12, males
  Body weight dynamics in % of initial body weight, Day 5, M ± SD: −7.7 ± 7.6%
  Body weight dynamics in % of initial body weight, Day 10, M ± SD: 11.0 ± 11.5%
  Body weight dynamics in % of initial body weight, Day 14, M ± SD: 20.1 ± 12.1%
[3]; [5]
  Body weight dynamics in % of initial body weight, Day 5 (individual animals): 6.1% and −15.2% and −5.9% and 0.0% and −3.0% and −4.1% and −13.7% and −17.1% and −9.2% and −14.4%
  Body weight dynamics in % of initial body weight, Day 10 (individual animals): 25.5% and 2.5% and 16.3% (2×) and 22.2% and 19.1% and 5.9% and −10.5% and 14.5% and −1.9%
  Body weight dynamics in % of initial body weight, Day 14 (individual animals): 35.2% and 11.7% and 24.6% and 31.7% and 28.1% (2×) and 18.0% and 1.0% (2×) and 21.7%
[3]; white outbred, rat, in vivo, iv, male rats, single i.v., read-out: LD50 (median lethal dose)
  LD50 at 14 days: 4.9 mg/kg
